Laboratory results reported in article PMC7112112.

Legend:
[1] = growth curve, TCID50, Vero cells; conditions: glycan lost; control: WTrIBV
[2] = RT-qPCR of IBV gRNA and sgRNA2; conditions: glycan lost; control: WTrIBV
[3] = indirect immunofluorescence, infected Vero cells; conditions: glycan lost; control: WTrIBV
[4] = 20-60% sucrose gradient ultracentrifugation, anti-M blot; conditions: glycan lost; control: WTrIBV
[5] = plaque size and shape, Vero cells; conditions: glycan lost; control: WTrIBV
[6] = co-expression with E in COS-7, pelleted VLP blot; conditions: glycan lost; control: MWT

B1: IBV M protein (membrane protein): rN3D/N6D (protein)
parent chain: MPNETNCTLDFEQSVQLFKEYNLFITAFLLFLTIILQYGYATRSKVIYTLKMIVLWCFWPLNIAVGVISCTYPPNTGGLVAAIILTVFACLSFVGYWIQSIRLFKRCRSWWSFNPESNAVGSILLTNGQQCNFAIESVPMVLSPIIKNGVLYCEGQWLAKCEPDHLPKDIFVCTPDRRNIYRMVQKYTGDQSGNKKRFATFVYAKQSVDTGELESVATGGSSLYT
no change: other: viral replication [1] | other: viral replication [2] | localisation_or_trafficking [3] | other: virion sedimentation [4] | other: viral replication [5]

B2: IBV M protein (membrane protein): MN3D/N6D (protein)
parent chain: MPNETNCTLDFEQSVQLFKEYNLFITAFLLFLTIILQYGYATRSKVIYTLKMIVLWCFWPLNIAVGVISCTYPPNTGGLVAAIILTVFACLSFVGYWIQSIRLFKRCRSWWSFNPESNAVGSILLTNGQQCNFAIESVPMVLSPIIKNGVLYCEGQWLAKCEPDHLPKDIFVCTPDRRNIYRMVQKYTGDQSGNKKRFATFVYAKQSVDTGELESVATGGSSLYT
no change: other: VLP formation [6]
